For assay [1] the following is noted: MND patients; cited from earlier work.
The target of the next assay is T1, NXF1 (Mus musculus, UniProt Q99JX7).
T1 construct: endogenous in cells; host or cells: Neuro-2a (N2A)
T1 sequence (Q99JX7 1-618): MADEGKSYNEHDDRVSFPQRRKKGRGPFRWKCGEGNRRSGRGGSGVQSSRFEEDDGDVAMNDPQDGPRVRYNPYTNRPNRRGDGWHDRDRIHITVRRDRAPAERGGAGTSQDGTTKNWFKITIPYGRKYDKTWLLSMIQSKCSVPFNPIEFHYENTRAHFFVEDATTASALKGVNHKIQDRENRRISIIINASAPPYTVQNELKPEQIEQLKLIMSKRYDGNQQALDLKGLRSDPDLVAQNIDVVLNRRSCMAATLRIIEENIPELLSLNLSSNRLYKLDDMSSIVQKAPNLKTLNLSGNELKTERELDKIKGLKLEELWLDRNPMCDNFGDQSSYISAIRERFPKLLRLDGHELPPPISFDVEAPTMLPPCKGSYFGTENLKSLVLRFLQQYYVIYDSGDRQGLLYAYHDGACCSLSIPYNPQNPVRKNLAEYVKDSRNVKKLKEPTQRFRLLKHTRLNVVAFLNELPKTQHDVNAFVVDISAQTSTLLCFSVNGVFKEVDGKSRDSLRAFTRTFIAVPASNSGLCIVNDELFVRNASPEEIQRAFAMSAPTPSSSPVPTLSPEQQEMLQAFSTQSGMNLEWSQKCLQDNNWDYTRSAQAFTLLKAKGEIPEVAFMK
Kind of assay: Anti-FLAG co-immunoprecipitation of endogenous NXF1 in N2A cells. In kind it is binding. The settings on record: FLAG-tagged protein, 48 h. As to the method:
Cells were split into 1×10 cm plates/treatment (1.5×10^6 cells/plate) and transfected with 15 μg p3×FLAG, p3×FLAG/SRSF1 (11-196), p3×FLAG/SRSF1 (11-196)-m2 or p3×FLAG/SRSF1(11-196)-m4 using 3 μg PEI/1 μg DNA and one tenth medium volume OptiMEM.
Proteins were extracted from Neuro-2a cells 48 hours after transfection. Cells were briefly washed in ice cold PBS, scraped into 500 μl ice cold lysis buffer, passed through a 21G gauge needle 10 times and left to lyse on ice for 10 minutes. Lysed cells were cleared by centrifugation at maximum speed at 4° C. for five minutes and protein extracts were quantified using Bradford Reagent. 2 mg of total protein in 1 ml lysis buffer was incubated with 30 μl anti-FLAG® M2 affinity resin slurry (Sigma A2220) (which had been blocked overnight with 1% BSA in IP lysis buffer) for 2 hours at 4° C. on a rotating wheel. […] 30 μg total protein and 15 μl captured protein complexes were resolved by SDS-PAGE, electroblotted onto nitrocellulose membrane and probed using FLAG, NXF1 clone 53H8 [1:2000] (Abcam ab50609) and […]-tubulin.

Assay [2] relates to poly-Gly-Pro and poly-Gly-Ala DPRs. As to the kind of experiment: Western blot of RAN-translated DPRs in N2A cells. Conditions: G4C2×38 or C4G2×39 constructs, 72 h. In kind it is cell-based, mouse. Here is the method:
Neuro-2a (ATCC) cells were cultured in Dulbecco's Modified Eagle Medium (Sigma) supplemented with 10% fetal bovine serum [FBS] (Gibco), 5 U/ml Penstrep (Lonza) and 5 mM sodium pyruvate. Cells were maintained in a […] incubator with 5% CO2. 75,000 Neuro-2a cells were split into each well of 24-well plates and transfected for 72 h with 500 ng pcDNA6.2-GW/EmGFP-Control miR RNAi (ThermoFisher) or pcDNA6.2-GW/EmGFP-mouse SRSF1 miR1+2 RNAi and 200 ng pcDNA 3.1/RAN-G4C2×38-sense or RAN-C4G2×39-antisense using 3 μg PEI/1 μg DNA and one tenth medium volume OptiMEM (ThermoFisher).
HEK cells were transfected for 72 h with 650 ng pcDNA6.2-GW/EmGFP-Control miRNA, pCDNA6.2-GW/EmGFP-human SRSF1 miR1+2 RNAi or LV-EmGFP-human SRSF1 miR1+2 RNAi constructs and 50 ng p3×FLAG/human-SRSF1 using 3.5 μg PEI/ml media and one tenth medium volume of OptiMEM. Neuro-2a cells were split into each well of 24-well plates (75,000 cells/well) and transfected for 72 h with 350 ng pcDNA6.2-GW/EmGFP-Control miR RNAi (ThermoFisher), pcDNA6.2-GW/EmGFP-mouse SRSF1 miR1+2 RNAi, p3×FLAG, p3×FLAG/SRSF1 (11-196), p3×FLAG/SRSF1 (11-196)-m2 or p3×FLAG/SRSF1 (11-196)-m4 and 350 ng pcDNA 3.1/RAN-G4C2×38-sense or RAN-C4G2×39-antisense using 3 μg PEI/1 μg DNA and one tenth medium volume OptiMEM.
Proteins were extracted from HEK or Neuro-2a cells 72 hours after transfection. […] Protein extracts were quantified using Bradford Reagent (BioRAD), resolved by SDS-PAGE, electroblotted onto nitrocellulose membrane and probed using the relevant primary antibody. […] (kindly received from Prof Stuart Pickering Brown) primary antibodies were detected with horseradish peroxidase (HRP)-conjugated rabbit secondary antibody [1:5000 dilution] […] (kindly provided from Prof Dieter Edbauer) primary antibodies were detected using HRP-conjugated mouse secondary antibody [1:5000 dilution] […] For dot blot analysis, 50 μg total protein extracts prepared in ice-cold lysis buffer were loaded onto a nitrocellulose membrane using a microfiltration apparatus (Biorad) and analysed by western immunoblotting as previously described.
On the technique in general: In western blotting, separated proteins are transferred to a membrane and probed.

Consider `Nc1nc2ccc(OC(F)(F)F)cc2s1` [riluzole], for which, in assay [1], the life extension entry was “around 6 months”.

B1: SRSF1-m2: FLAG-tagged SRSF1 11-196 double R117,118A mutant (protein)
chain: AGNNDCRIYVGNLPPDIRTKDIEDVFYKYGAIRDIDLKNRRGGPPFAFVEFEDPRDAEDAVYGRDGYDYDGYRLRVEFPRSGRGTGRGGGGGGGGGAPRGRYGPPSAASENRVVVSGLPPSGSWQDLKDHMREAGDVCYADVYRDGTGVVEFVRKEDMTYAVRKLDNTKFRSHEGETAYIRVKVDG
modifications: left off: small tags and cut ends
notes: FLAG-tagged SRSF1 11-196 double R117,118A mutant
With B1, in the assay with NXF1, the “co-immunoprecipitation of endogenous NXF1” value was “specifically immunoprecipitated”. For the same molecule, in assay [2], the “effect on RAN translation / production of sense and antisense DPRs” value was “little effect”.

B2: SRSF1 11-196 wild type: FLAG-tagged SRSF1 amino-acids 11-196 wild type (protein)
chain: AGNNDCRIYVGNLPPDIRTKDIEDVFYKYGAIRDIDLKNRRGGPPFAFVEFEDPRDAEDAVYGRDGYDYDGYRLRVEFPRSGRGTGRGGGGGGGGGAPRGRYGPPSRRSENRVVVSGLPPSGSWQDLKDHMREAGDVCYADVYRDGTGVVEFVRKEDMTYAVRKLDNTKFRSHEGETAYIRVKVDG
modifications: left off: small tags and cut ends
notes: FLAG-tagged SRSF1 amino-acids 11-196 wild type
For B2, the “co-immunoprecipitation of endogenous NXF1” value with NXF1 is listed as “specifically immunoprecipitated”. In assay [2], the “effect on RAN translation / production of sense and antisense DPRs” value was “no”.

Source of the values: patent US10801027B2, “Inhibitors of SRSF1 to treat neurodegenerative disorders” (University of Sheffield, priority 2016, dated 2020).
